From US12162924B2, “Method for the design of fibrillar collagen-mimetic peptide self-assemblies” (WISCONSIN ALUMNI RESEARCH FOUNDATION, priority 2016, dated 2024)
Several values for one entry are separate records, joined by “and”; a condition that tells them apart may be missing. Equal values may be shown once. Non-standard residues stand in square brackets, D forms with d. No end group written: not given here. Hyp = O=C(O)[C@@H]1C[C@@H](O)CN1; Orn = NCCC[C@H](N)C(=O)O

Legend:
Type in all cases: physicochemical
[1] = CD thermal denaturation (melting temperature of triple-helical assemblies); details: for Tm (° C.): Table 2, constructs that self-assemble
Experimental: All CD data were acquired with a 202SF or 420 CD spectrophotometer from Aviv Biomedical (Lakewood, N.J.) at the UW BIF. Samples were prepared at a concentration of 0.6 mg/mL (˜160 μM) in 10 mM sodium phosphate buffer, pH 7.0, both with and without NaCl (180 mM). CD spectra were recorded at 4° C. with a 1-nm band-pass in quartz cuvettes with a 0.1-cm pathlength, using an averaging time of 4 s. For thermal denaturation experiments the CD signal was monitored at 226 nm while the sample was heated at a rate of 12° C./h in 2- or 3-° C. steps. The melting transition is indicated by a minimum on the temperature derivative of the melting curve (∂[θ]/∂T), and values (±1° C.) of melting temperature (Tm) were determined assuming constant curvature in the immediate vicinity of the transition minimum.

[2] = Negative-stained (dry) TEM imaging of peptide assemblies; details: for Feature dimensions (nm), nanofiber diameter by TEM: dried, negative-stained, mean±SD
Experimental: (§1) All imaging was performed with a Tecnai TF-30 TEM instrument (300 kV) from FEI (Hillsboro, Oreg.) at the UW Materials Science Center (MSC; msc.engr.wisc.edu). Samples were prepared on Quantifoil R1.2/1.3 holey-carbon mesh on copper grids. Sample preparation for dry TEM was carried out at 4° C. Samples were negative-stained using freshly prepared 2.0% w/w PTA solution adjusted to pH 6 with aqueous NaOH and filtered. The peptide solution was allowed to adhere to the carbon-mesh side of the grid for 1 min, at which point excess solution was blotted with filter paper, and the grid was allowed to dry for 5 min. Negative stain was applied for 10 min by inverting the grid on a drop of PTA solution. Excess stain was removed with filter paper, and the grid was allowed to dry overnight prior to imaging. For vitreous ice cryo-TEM imaging, a solution of OKD (0.3 mg/mL) was applied to a TEM grid, glow discharged for 0.5 min at 25 mA beforehand with a Pelco easiGlow unit from Ted Pella (Redding, Calif.). The grid was allowed to equilibrate at 5° C. at 95% humidity. A drop of peptide solution was added, and the grid was then blotted and immersed in liquid ethane on a Vitrobot from FEI. The grid was transferred from liquid ethane to liquid nitrogen manually, and was stored in liquid nitrogen until imaging. Acquisition was performed at −180° C. with low dose and long exposures.

[3] = Tapping-mode atomic force microscopy on mica; details: annealed at 0.03 mg/mL, freshly cleaved mica
Experimental: Peptide samples were annealed at 0.03 mg/mL in 10 mM sodium phosphate buffer, pH 7.0, and applied onto freshly cleaved mica at 4° C. After 10 min, the solution of peptide was washed with cold water for 30 s, and excess water was removed with a filter paper. Samples were dried at 4° C. overnight prior to imaging. AFM images were collected in tapping mode with an Agilent 5500 SPM instrument using NCHV-A probes from Bruker (Billerica, Mass.). Data were analyzed with Gwyddion ver. 2.39 software (gwyddion.net).
Although the softness of the material led to artifacts and necessitated frequent use of fresh probes, the images clearly and consistently present the self-assembled OKD nanofibers.

[4] = Rheology of peptide hydrogels / hydrogel formation
Experimental: This solution is placed in an airtight container, heated to 65° C. in a large water bath and annealed down to room temperature, overnight. The resulting hydrogel is subjected to rheological analysis (FIG. 15a).
Rheology on peptide hydrogels was performed on a TA ARES rheometer at the Soft Materials Laboratory at the University of Wisconsin—Madison, using 8-mm stainless-steel parallel-plate geometry with a 1 mm gap size. Strain sweeps (0.01-200%) maintained a fixed frequency of 2 rad/s, while a fixed strain of 1% was applied for frequency sweeps (0.1-100 rad/s).

[5] = Vitreous ice cryo-TEM imaging; details: 0.3 mg/mL, flash frozen in liquid ethane
Experimental: as §1

[6] = Evidence for symmetric self-assembly (AUC/CD/DLS/TEM/AFM/Rheology); details: Table 3
Source text: These peptides follow the following criteria for symmetric triple-helical self-assembly: • o. Peptides should embody the uninterrupted Xaa-Yaa-Gly tripeptide repeats of collagens • Peptides should be constructed to allow the formation of a polyproline-II helix. For this, their sequence should have a Gly at every third position. In addition, Pro residues should be favored at Xaa positions and Pro or Hyp residues at Yaa positions. Resulting peptides are collagen-mimetic peptides (CMPs). • i. Repulsive interstrand interactions should be installed to prevent the formation of the blunt-ended homotrimeric state. • CMPs are prone to forming blunt-ended triple helices, in general. This state should be destabilized to enable CMPs to associate with sticky-ends. • ii. The number of tripeptide repeats, nT, that constitute the CMP cannot be evenly divisible by three. • Satisfaction of this criterion is essential to obtain identical strand-offsets in the assembled state. […] This offset is nT residues for a peptide with nT tripeptide repeats. […] Thus, it is necessary to introduce attractive interstrand interactions to CMP designs that stabilize triple-helix formation only when they associate with nT-residue offsets.

POGPOGPOGPKGPKGPKGPKGHcyOGPOGDOGDOGDOGDOGPOG (PXGPXGPXGPKGPKGPKGPKGXXGPXGDXGDXGDXGDXGPXG; homocysteine, hydroxyproline residues; MOD_RES (2)..(2) 4Hyp; MOD_RES (5)..(5) 4Hyp; MOD_RES (8)..(8) 4Hyp; MOD_RES (22)..(22) Homocysteine; MOD_RES (23)..(23) 4Hyp; MOD_RES (26)..(26) 4Hyp; MOD_RES (29)..(29) 4Hyp; MOD_RES (32)..(32) 4Hyp; MOD_RES (35)..(35) 4Hyp; MOD_RES (38)..(38) 4Hyp; MOD_RES (41)..(41) 4Hyp) [OKD2-h22]
Tm (° C.) [1]: 50 °C

PKGPKGPKGPOGPOGDOGDOGDOGPOGPOGPO (PKGPKGPKGP[Hyp]GP[Hyp]GD[Hyp]GD[Hyp]GD[Hyp]GP[Hyp]GP[Hyp]GP[Hyp]) [Peptide 3sb-KDO]
Tm (° C.) [1]: 13 °C

POGPOGPCysGPKGPKGPKGPKGPOGPOGDOGDOGDOGDOGPOG (PXGPXGPCGPKGPKGPKGPKGPXGPXGDXGDXGDXGDXGPXG; hydroxyproline residues; MOD_RES (2)..(2) 4Hyp; MOD_RES (5)..(5) 4Hyp; MOD_RES (23)..(23) 4Hyp; MOD_RES (26)..(26) 4Hyp; MOD_RES (29)..(29) 4Hyp; MOD_RES (32)..(32) 4Hyp; MOD_RES (35)..(35) 4Hyp; MOD_RES (38)..(38) 4Hyp; MOD_RES (41)..(41) 4Hyp) [OKD2-C8]
Tm (° C.) [1]: 45 °C

POGPOGPOGPKGPKGPKGPOGPOGDOGDOGDOG (P[Hyp]GP[Hyp]GP[Hyp]GPKGPKGPKGP[Hyp]GP[Hyp]GD[Hyp]GD[Hyp]GD[Hyp]G) [Peptide 3sbG-OKD]
Tm (° C.) [1]: 33 °C

POGPOGPOGPOGPKGPKGPKGPKGPOGPOGDOGDOGDOGDO (P[Hyp]GP[Hyp]GP[Hyp]GP[Hyp]GPKGPKGPKGPKGP[Hyp]GP[Hyp]GD[Hyp]GD[Hyp]GD[Hyp]GD[Hyp]) [Peptide 4sb-OKD]
Tm (° C.) [1]: 36 °C

PKGPKGPKGPOGPOGDOGDOGDOGPOGPOGPOG (PKGPKGPKGP[Hyp]GP[Hyp]GD[Hyp]GD[Hyp]GD[Hyp]GP[Hyp]GP[Hyp]GP[Hyp]G) [Peptide 3sbG-KDO]
Tm (° C.) [1]: 26 °C

POGPOGPOGPKGPKGPKGPOGPOGDOGDOGDO (P[Hyp]GP[Hyp]GP[Hyp]GPKGPKGPKGP[Hyp]GP[Hyp]GD[Hyp]GD[Hyp]GD[Hyp]) [Peptide 3sb-OKD]
Tm (° C.) [1]: 20 °C

POGPOGPOGPOGPKGPKGPKGPKGPOGPOGDOGDOGDOGDOG (PXGPXGPXGPXGPKGPKGPKGPKGPXGPXGDXGDXGDXGDXG; hydroxyproline residues; MOD_RES (2)..(2) 4Hyp; MOD_RES (5)..(5) 4Hyp; MOD_RES (8)..(8) 4Hyp; MOD_RES (11)..(11) 4Hyp; MOD_RES (26)..(26) 4Hyp; MOD_RES (29)..(29) 4Hyp; MOD_RES (32)..(32) 4Hyp; MOD_RES (35)..(35) 4Hyp; MOD_RES (38)..(38) 4Hyp; MOD_RES (41)..(41) 4Hyp) [OKD]
length of triple-helical stretches ([2]; TEM): ≤ 0.3 μm
Feature dimensions (nm), nanofiber diameter by TEM [2]: 2.3±0.4 nm
nanofiber length (AFM) [3]: up to 0.5 μm
nanofiber thickness/diameter (AFM) [3]: 1.2±0.2 nm and 1.2 nm
Tm (° C.) I = 20 mM ([1]; CD at 226 nm, 0.6 mg/mL, 10 mM sodium phosphate pH 7.0, low ionic strength I = 20 mM): 49 °C
Tm (° C.) I = 200 mM ([1]; CD at 226 nm, 0.6 mg/mL, 10 mM sodium phosphate pH 7.0 with 180 mM NaCl, I = 200 mM): 39 °C
Tm (° C.) [1]: 49 °C
hydrogel formation ([4]; 4sbG series peptides): form hydrogels
G′ (storage modulus) ([4]; hydrogel at 1% concentration): 0.5 kPa
G″ (loss modulus) ([4]; hydrogel at 1% concentration): 0.05 kPa
diameter of solvated nanofibers (cryo-TEM) [5]: 3.8±0.5 nm

POGPOGPOGPOrGPOrGPOrGPOGPOGDOGDOGDO (P[Hyp]GP[Hyp]GP[Hyp]GP[Orn]GP[Orn]GP[Orn]GP[Hyp]GP[Hyp]GD[Hyp]GD[Hyp]GD[Hyp]) [Peptide 3sb-OOrD]
Evidence (constructs that do not reliably self-assemble) [6]: no structure

B1: POGPOGPO…cyOGPOGDOGDOGDOGDOGPOG / POGPOGPCysGPKGPKGPKGPKGPOGPOGDOGDOGDOGDOGPOG (peptide)
chain 1: PXGPXGPXGPKGPKGPKGPKGXXGPXGDXGDXGDXGDXGPXG
chain 2: PXGPXGPCGPKGPKGPKGPKGPXGPXGDXGDXGDXGDXGPXG
modifications: not fully specified; homocysteine-cysteine crosslinked heterodimer; MOD_RES (2)..(2) 4Hyp; MOD_RES (5)..(5) 4Hyp; MOD_RES (8)..(8) 4Hyp; MOD_RES (22)..(22) Homocysteine; MOD_RES (23)..(23) 4Hyp; MOD_RES (26)..(26) 4Hyp; MOD_RES (29)..(29) 4Hyp; MOD_RES (32)..(32) 4Hyp; MOD_RES (35)..(35) 4Hyp; MOD_RES (38)..(38) 4Hyp; MOD_RES (41)..(41) 4Hyp
Feature dimensions (nm), nanofiber diameter by TEM [2]: 2.4±0.4 nm
Tm (° C.) [1]: 60 °C
